Assay results from patent US20190022244A1 (BIOASIS TECHNOLOGIES, published 2019).

Molecular target: T1, human N-acetylated-alpha-linked acidic dipeptidase-like protein 2 (NAALADL2) (human, UniProt Q58DX5 1-795)
T1 construct: also called human NAALADL2 receptor; NAALADL2 polypeptide
T1 sequence: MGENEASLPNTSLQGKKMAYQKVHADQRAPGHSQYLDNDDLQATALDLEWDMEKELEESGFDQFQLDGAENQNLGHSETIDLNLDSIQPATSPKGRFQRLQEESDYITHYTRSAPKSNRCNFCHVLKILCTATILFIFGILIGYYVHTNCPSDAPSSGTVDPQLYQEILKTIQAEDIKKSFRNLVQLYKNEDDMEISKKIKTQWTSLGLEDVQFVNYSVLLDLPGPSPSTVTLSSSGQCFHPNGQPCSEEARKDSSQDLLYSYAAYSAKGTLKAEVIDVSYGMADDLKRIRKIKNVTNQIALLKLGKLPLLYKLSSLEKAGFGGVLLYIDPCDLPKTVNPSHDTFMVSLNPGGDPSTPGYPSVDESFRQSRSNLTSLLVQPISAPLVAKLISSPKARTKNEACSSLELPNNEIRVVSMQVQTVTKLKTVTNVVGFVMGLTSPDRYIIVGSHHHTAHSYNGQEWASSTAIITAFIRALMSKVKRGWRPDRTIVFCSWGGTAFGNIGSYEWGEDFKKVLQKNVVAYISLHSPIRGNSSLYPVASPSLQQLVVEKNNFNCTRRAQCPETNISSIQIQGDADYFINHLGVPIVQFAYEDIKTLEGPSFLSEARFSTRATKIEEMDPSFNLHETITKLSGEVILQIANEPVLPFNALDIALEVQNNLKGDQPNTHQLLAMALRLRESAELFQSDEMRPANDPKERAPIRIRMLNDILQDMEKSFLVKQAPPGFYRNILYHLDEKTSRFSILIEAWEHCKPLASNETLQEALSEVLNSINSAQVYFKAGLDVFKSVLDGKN
Experiment: EGS cross-linking on U87 cells, then reciprocal immunoprecipitation (anti-MTf L235 or anti-NAALADL2 N18+L18) and immunoblot with the complementary antibody
Procedure: Cells were pulsed with 1 μl of 7.1 mg/ml a human melanotransferrin (MTf) peptide ([…]; SEQ ID NO:2) and 4 μl of NTA-Fe, and shaken gently at 4° C. for 20 minutes to allow binding. The supernatant was discarded and the cells were washed 2× with 5 ml of PBS at 4° C. Cross-linker solution (6 ml of 3.7 mM EGS; Thermo Scientific, Cat #87786) was added to each flask, and the cells were shaken gently at 4° C. for 2 hours.
The supernatant was discarded, and 2 ml of RIPA buffer with 1X HALT protease inhibitor cocktail was added to lyse the cells and quench the cross-linker. The cells were shaken vigorously at room temperature for 5 minutes, and a cell scraper was used to lyse and completely detach the cell lysate from the plate.

binding result: binds
B1: human melanotransferrin (MTf) peptide (DSSHAFTLDELR; SEQ ID NO:2) (peptide)
peptide: DSSHAFTLDELR
notes: 12-residue fragment of human melanotransferrin (p97); It was pulsed onto U87 cells together with NTA-Fe; also called human MTf peptide; human MTf polypeptide
